Legend:
[1] = substrate: CC[C@H](C)[C@H](NC(=O)[C@@H](NC(=O)[C@H](CC(=O)O)NC(=O)CNC(=O)[C@H](C)NC(=O)[C@H](C)NC(=O)[C@@H]1CCCN1C(=O)[C@H](C)NC(=O)[C@H](CC(C)C)NC(=O)[C@H](CC(C)C)NC(=O)[C@@H](NC(=O)[C@H](CC(C)C)NC(=O)[C@H](C)NC(=O)[C@@H](N)CC(=O)O)[C@@H](C)O)[C@@H](C)O)C(=O)N[C@H](C(=O)N[C@@H](CO)C(=O)N[C@@H](CC(C)C)C(=O)N[C@@H](CC(=O)O)C(=O)N[C@@H](Cc1ccccc1)C(=O)O)[C@@H](C)CC; experiment: (§1) Hydroxylation activity of human PHD2
[2] = substrate: CC[C@H](C)[C@H](NC(=O)[C@H](Cc1ccc(O)cc1)NC(=O)[C@@H]1CCCN1C(=O)[C@H](C)NC(=O)[C@H](CC(C)C)NC(=O)[C@H](CCSC)NC(=O)[C@H](CCC(=O)O)NC(=O)[C@H](CC(C)C)NC(=O)[C@H](CC(=O)O)NC(=O)[C@H](CC(C)C)NC(=O)[C@@H](N)CC(=O)O)C(=O)N1CCC[C@H]1C(=O)N[C@@H](CCSC)C(=O)N[C@@H](CC(=O)O)C(=O)N[C@@H](CC(=O)O)C(=O)N[C@@H](CC(=O)O)C(=O)N[C@@H](Cc1ccccc1)C(=O)N[C@@H](CCC(N)=O)C(=O)N[C@@H](CC(C)C)C(=O)O; experiment: as §1

B1: Egl nine homolog 1 (Homo sapiens), Q9GZT9 (protein)
chain: MANDSGGPGGPSPSERDRQYCELCGKMENLLRCSRCRSSFYCCKEHQRQDWKKHKLVCQGSEGALGHGVGPHQHSGPAPPAAVPPPRAGAREPRKAAARRDNASGDAAKGKVKAKPPADPAAAASPCRAAAGGQGSAVAAEAEPGKEEPPARSSLFQEKANLYPPSNTPGDALSPGGGLRPNGQTKPLPALKLALEYIVPCMNKHGICVVDDFLGKETGQQIGDEVRALHDTGKFTDGQLVSQKSDSSKDIRGDKITWIEGKEPGCETIGLLMSSMDDLIRHCNGKLGSYKINGRTKAMVACYPGNGTGYVRHVDNPNGDGRCVTCIYYLNKDWDAKVSGGILRIFPEGKAQFADIEPKFDRLLFFWSDRRNPHEVQPAYATRYAITVWYFDADERARAKVKYLTGEKGVRVELNKPSDSVGKDVF
Km [1]: 44 µM | Km [2]: 37 µM
